Reference: the supplement of paper PMC9170038

System: MS2 coat protein
Assay: apparent KD of MS2 coat protein; designed switch direction (-1 OFF switch, 1 ON switch): -1; higher = weaker reporter binding
Summary of the method: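 Transcription of designed RNA switches on Illumina chips was done by stalled E. coli RNA polymerase. SNAP-549-labelled MS2 coat protein was then titrated in doubling steps from 0.7 or 1.5 nM to 3 µM, with steps of 0.8–1.5 h at the lowest and 10–20 min at the highest concentration. The per-design median over clusters of curve-fitted normalised fluorescence is reported as apparent KD.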

[1] = input ligand: microRNA oligo, concentration not stated
[2] = Eterna round: R95, input ligand: FMN 200 uM
[3] = Eterna round: R95, input ligand: microRNA oligo, concentration not stated
[4] = Eterna round: R95, input ligand: none

For “GCUUUUUGUGUAGGAUAUCGCGCGCGGCGUGUGUGAGAAGGACAUGAGGAUCACCCAUGUAGCAACGGCGGCGCUGGUGUUGUC [-27, -24 kcal and 18% A] (Eterna round: R96, puzzle: Exclusion NG 1)”, the “apparent KD of MS2 coat protein” value (input ligand: FMN 200 uM) was 16.7 nM, the “apparent KD of MS2 coat protein” value [1] was 10.7 nM and the “apparent KD of MS2 coat protein” value (input ligand: none) was 19.5 nM.
For “GGAAGUAGAAACCGAUCCUACAUGAGGAUCACCCAUGUAGCAAGACGUGCACGCGAAGCUCGUCAGACUACCAGAAC [salish99_TOv1_r3_012] (puzzle: Sensor v3, turn-off variant 1)”, the “apparent KD of MS2 coat protein” value [2] was 204 nM, the “apparent KD of MS2 coat protein” value [3] was 383 nM and the “apparent KD of MS2 coat protein” value [4] was 521 nM.
With “GGAAUGAGAGAGGAUAUGGGAGGGAGGACCGGACCAGAAGGCUCGACAUGAGGAUCACCCAUGUGGAGAUCCUC [AK-MS2ROC-r4-exclusion6-6.11] (Eterna round: R97, puzzle: Exclusion 6)” the “apparent KD of MS2 coat protein” value (input ligand: FMN 200 uM) was 236 nM and the “apparent KD of MS2 coat protein” value (input ligand: none) was 1480 nM.
For “GGACACUGAGGAUAUACAAUUCAGGUCCUCCUGUAGAGUAUACAUGAGGAUCACCCAUGUAGAAGGCAGACCAA [Aronberiat] (Eterna round: R97, puzzle: Exclusion 2)”, the “apparent KD of MS2 coat protein” value (input ligand: FMN 200 uM) was 344 nM and the “apparent KD of MS2 coat protein” value (input ligand: none) was 44.9 nM.
In the case of “GGACAGCGAGGAUAUACGUGUACGUUAUCCUCUAUGGGUCAACAUGAGGAUCACCCAUGUAGAAGGCGCAUAAU [Mabima] (puzzle: Exclusion 2)”, the “apparent KD of MS2 coat protein” value [3] is reported as 18.7 nM.
In the case of “GGACGGUAAGUGAGGAUAUGCUCUACCUCGGUAGAGCAGAAGGCACAUGAGGAUCACCCAUGUGAAAACUGUUC [Omei Ex4B B31] (Eterna round: R97, puzzle: Brourd's mod of Exclusion 4)”, the “apparent KD of MS2 coat protein” value (input ligand: FMN 200 uM) is reported as 21.5 nM and the “apparent KD of MS2 coat protein” value (input ligand: none) is reported as 15 nM.
“GGAGAGUCAGGAUAUCGAAGGUAGAGAAGAGGAGAGUGGUACGAGAAGGGACAUGAGGAUCACCCAUGUAGGUG [JR_Exclusion4)Sub011] (puzzle: Exclusion 4)” was tested, and the “apparent KD of MS2 coat protein” value [2] was 457 nM, the “apparent KD of MS2 coat protein” value [3] was 645 nM and the “apparent KD of MS2 coat protein” value [4] was 452 nM.
For “GGAGCGAUUCUCUUAGCAGACAUGAGGAUCACCCAUGUAUGCAAGCUCUUAUUUUGCUCGUCUUACCGGGAGUUGCU [Ridizaer] (puzzle: Sensor v3, turn-off variant 1)”, the “apparent KD of MS2 coat protein” value [2] was 13.6 nM, the “apparent KD of MS2 coat protein” value [3] was 20.7 nM and the “apparent KD of MS2 coat protein” value [4] was 13 nM.
For “GGAGCGAUUCUCUUAGCUGACAUGAGGAUCACCCAUGUAUGCAAGCUCUUAUUUUGCUCGUCUUACCGGGAAUUGCU [Uslainar] (puzzle: Sensor v3, turn-off variant 1)”, the “apparent KD of MS2 coat protein” value [2] was 14.8 nM, the “apparent KD of MS2 coat protein” value [3] was 18.5 nM and the “apparent KD of MS2 coat protein” value [4] was 13.2 nM.
In the case of “GGAGGACGAGCAGGAUAUUUUCACAUGAGGAUCACCCAUGUGUAUUCAGGGUAAUCUUCCGCCGAAAAGAAGGGUUCGGAAGAA [JL ViennaUCT Socedi mod 3] (Eterna round: R96, puzzle: Exclusion NG 2)”, the “apparent KD of MS2 coat protein” value (input ligand: FMN 200 uM) is reported as 47.1 nM, the “apparent KD of MS2 coat protein” value [1] is reported as 27.4 nM and the “apparent KD of MS2 coat protein” value (input ligand: none) is reported as 25.9 nM.
For “GGAUAAAACUGAGGAUAUACGCACCACUAACGAGUAGAAGGCAGACAUGAGGAUCACCCAUGUGAGUUCUCAAUAAGAAACACG [Prohibition 66 - Jieux - Exclusion NG 1] (Eterna round: R96, puzzle: Exclusion NG 1)”, the “apparent KD of MS2 coat protein” value (input ligand: FMN 200 uM) was 192 nM, the “apparent KD of MS2 coat protein” value [1] was 88.9 nM and the “apparent KD of MS2 coat protein” value (input ligand: none) was 85.1 nM.
In the case of “GGAUCACAUGUCAGGAUAUGCAGGUCCUUGGAUCUGCAGAAGGGACAUGAGGAUCACCCAUGUCAUGAAGAUCC [Mat - Exclusion 4 - Eli Mod - D51] (Eterna round: R97, puzzle: Brourd's mod of Exclusion 4)”, the “apparent KD of MS2 coat protein” value (input ligand: FMN 200 uM) is reported as 945 nM and the “apparent KD of MS2 coat protein” value (input ligand: none) is reported as 145 nM.
For “GGAUCGAAUGUGAGGAUAUACCUAUGGAUACAUAGGUAGAAGGCACAUGAGGAUCACCCAUGUCCUAACGGUCC [Eli bmx4 4.14] (Eterna round: R97, puzzle: Brourd's mod of Exclusion 4)”, the “apparent KD of MS2 coat protein” value (input ligand: FMN 200 uM) was 479 nM and the “apparent KD of MS2 coat protein” value (input ligand: none) was 347 nM.
For “GGAUCGAGUGUGAGGAUAUACCUAUGGAUACAUAGGUAGAAGGCACAUGAGGAUCACCCAUGUCCUAACGGUCC [Eli bmx4 4.15] (Eterna round: R97, puzzle: Brourd's mod of Exclusion 4)”, the “apparent KD of MS2 coat protein” value (input ligand: FMN 200 uM) was 933 nM and the “apparent KD of MS2 coat protein” value (input ligand: none) was 308 nM.
“GGAUCUACUGAGGAUAUUACAUCACCCGACUGAUAAGAAGGCAGAACAUGAGGAUCACCCAUGUGGGUAGCCAA [Polaris4] (Eterna round: R97, puzzle: Exclusion 6)” was tested, and the “apparent KD of MS2 coat protein” value (input ligand: FMN 200 uM) was 25.7 nM and the “apparent KD of MS2 coat protein” value (input ligand: none) was 21.3 nM.
With “GGAUUACAUGAGGAUCACCCAUGUGAGGAUAUCCCGACAGGUUGCAGAGAACCUCGUAGGAGAAGGCACAGGCG [EX1 B.12] (Eterna round: R97, puzzle: Exclusion 1)” the “apparent KD of MS2 coat protein” value (input ligand: FMN 200 uM) was 234 nM and the “apparent KD of MS2 coat protein” value (input ligand: none) was 102 nM.
In the case of “GGCAAAGUAGGAUAUACAUGAGGAUCACCCAUGUUUCCAGAUGGCGUAGGUCUUCUUUGUAGAAGGGCUAUGCC [Ananinge] (Eterna round: R97, puzzle: Exclusion 3)”, the “apparent KD of MS2 coat protein” value (input ligand: FMN 200 uM) is reported as 20.1 nM and the “apparent KD of MS2 coat protein” value (input ligand: none) is reported as 15.2 nM.
In the case of “GGCAAUAACGAGGAUAUCGUAUGGGAAACCAUACGAGAAGGUGUAACAUGAGGAUCACCCAUGUUCCUCAAGCC [Mat - Exclusion 6 - Eli Mod - D66] (puzzle: Exclusion 6)”, the “apparent KD of MS2 coat protein” value [2] is reported as 35.3 nM, the “apparent KD of MS2 coat protein” value [3] is reported as 34.6 nM and the “apparent KD of MS2 coat protein” value [4] is reported as 40 nM.
In the case of “GGCACACAUGUAGGAUAUCUGCACGAUUAGUGCAGAGAAGGACAUGAGGAUCACCCAUGUAAUUAAGAUCAAUUAUUAAGUGCC [ENG1/3-A1] (Eterna round: R96, puzzle: Exclusion NG 1)”, the “apparent KD of MS2 coat protein” value (input ligand: FMN 200 uM) is reported as 468 nM, the “apparent KD of MS2 coat protein” value [1] is reported as 50 nM and the “apparent KD of MS2 coat protein” value (input ligand: none) is reported as 54.6 nM.
With “GGCAUGCAAGGAUAUACUUGAAGUGAUGUUCGAUAAAGUCUACUUGAGGAUCACCCAAGUAGAAGGUGCAUGCC [Exclusion 2 (Mod5.1 JL EX2 4.74 Vienna UCT mod of Mamaed)] (Eterna round: R97, puzzle: Exclusion 2)” the “apparent KD of MS2 coat protein” value (input ligand: FMN 200 uM) was 108 nM and the “apparent KD of MS2 coat protein” value (input ligand: none) was 198 nM.
For “GGCAUGUAAGGAUAUGCCACUGAGUGCUUUGCGCUCAGAAAGCAGAAGGUACAUGAGGAUCACCCAUGUGAUAA [jl-ex4-4.53 ViennaUCT mod] (Eterna round: R97, puzzle: Exclusion 4)”, the “apparent KD of MS2 coat protein” value (input ligand: FMN 200 uM) was 945 nM and the “apparent KD of MS2 coat protein” value (input ligand: none) was 650 nM.
For “GGCCCUAAGGUCAGAUUCACAAGCUUUUUGCUCGUUUUAACAUGAGGAUCACCCAUGUCUAGUGGAUCUGAUCCUCU [Sensor v3, turn-off variant 2 (MOD of Indiso v.1)] (puzzle: Sensor v3, turn-off variant 2)”, the “apparent KD of MS2 coat protein” value [2] was 27.5 nM, the “apparent KD of MS2 coat protein” value [3] was 14.9 nM and the “apparent KD of MS2 coat protein” value [4] was 31.2 nM.
In the case of “GGCCUUCCGCGAGCUUUUUACAUGAGGAUCACCCAUGUGGUUUUUAGUCUUAUGCCCGGGCCCGUGUGGGCCCGGGC [-33.7, -54.7, A 12%] (Eterna round: R97, puzzle: Sensor, turn-off variant 1)”, the “apparent KD of MS2 coat protein” value (input ligand: FMN 200 uM) is reported as 27.6 nM and the “apparent KD of MS2 coat protein” value (input ligand: none) is reported as 29.2 nM.
With “GGCGAGCAAGGAUAUGCAGGGUAUCCGACUCGCAGCGGGCGACAUGAGGAUCACCCAUGUAGAAGGUGCACGCG [EX2 A.6] (Eterna round: R97, puzzle: Exclusion 2)” the “apparent KD of MS2 coat protein” value (input ligand: FMN 200 uM) was 23.9 nM and the “apparent KD of MS2 coat protein” value (input ligand: none) was 31 nM.
In the case of “GGCUAGUCAGGAUAUACGAACAUGUCAAAAGACGUGAAGGGACAUGAGGAUCACCCAUGUAGAAGGGACUAGCG [salish99_ex2_r3_002] (puzzle: Exclusion 2)”, the “apparent KD of MS2 coat protein” value [3] is reported as 25 nM.
